Tested on: K4 kissing-loop RNA reporter
Assay: apparent KD of K4 kissing-loop reporter; higher = weaker reporter binding
Conditions: Eterna round: R107
Description: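 RNA-MaP round R107: designed RNA switches with theophylline, tryptophan, arginine or FMN aptamers are transcribed on-chip within common flanks. They are titrated with a labelled K4 kissing-loop RNA reporter in RNA-MaP buffer (100 mM Tris pH 7.5, 80 mM KCl, 4 mM MgCl2), without ligand or with the indicated ligand. Median apparent KD per design.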

[1] = input ligand: theophylline 20 uM
[2] = input ligand: tryptophan 2.4 mM
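Further: bound reporter read as fluorescence of individual clusters on recovered sequencing chips by microscopy, with normalized cluster intensities fitted with a binding model.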

| Sequence | apparent KD of K4 kissing-loop reporter (input ligand: FMN 200 uM) [µM] | apparent KD of K4 kissing-loop reporter (input ligand: arginine 13.2 mM) [µM] | apparent KD of K4 kissing-loop reporter (input ligand: none) [µM] | apparent KD of K4 kissing-loop reporter [1] [µM] | apparent KD of K4 kissing-loop reporter [2] [µM] |
| --- | --- | --- | --- | --- | --- |
| UGUACCGAGUCAGGAUAUCAUAAAGUUGGAGUGAUGUUCCAAUAACGACUGACAAAGUCGGUCGAUUGAGAAGGGACUUGGUACU [FmnBS 9 #SwitchBubble #StaticStem] | 0.16 | 0.139 | 0.141 | 0.143 | 0.151 |
| UGAUAGGACAGAAGGAGCGGAGGUCGUCAAAGACGACCAAUAACGUUGAUAGGAGUGAUGUUCCAGGUAGGUCGCUGUCCUAUCU [ArgBX 29 #SwitchBubble #StaticStem] | 0.147 | 0.127 | 0.121 | 0.152 | 0.0958 |
| GCGCGGGAGUGAUGUUCCAAGUGGUGUUAACGAGGACCGGUACGGCCGCCACUCGAUACGGCCGGGCCGUAGGAUAAACUGGCGC [Same State - Tryptophan A (Freestyle 14)] | 0.405 | 0.376 | 0.441 | 0.318 | 0.408 |
| ACUGCCAUUGCGGCCGCCACUAUCUCACUUUGCGAAUCUGCACCGACUGAGUGAUGUUCGGUAAAUAGGACCGGGCAAUGGGCCG [theeternabot_sameState_KL_Trp_B_26] | 0.611 | 0.479 | 0.633 | 0.281 | 0.657 |
| UAAUAAAUUCCAGCGAUAUCGCUCUUCGAAGGAGCGGACGAAAGUCCAGGUAGGUCGCGAAGAGUGAUGUUCUUUGCGGCGCUGG [Omei KL Arginine A Exc A v4] | 0.207 | 0.18 | 0.262 | 0.32 | 0.226 |
| GGAUUGCCAGUGAUGUUGGCAUAAACUGAAGGAGCGCGUGAAAACGCAGGUAGGUCGCAGAACCUUGCCAACUGAUCGAAAGAUC [Ex Arginine A K4 29] | 0.123 | 0.138 | 0.121 | 0.122 | 0.106 |
| GGUAGCAUGGCGGCCGCCACUUAAUCACUCCAGGAUGAGGAAUAUAAGCAGUGAUGUUGCUAAGUAAGGACCGGGCCAUGCUACC | 0.269 | 0.271 | 0.327 | 0.354 | 0.201 |
| UGGAGUUGACGAAGAGUCAACUCCUGAGAUACCAGUGACGAAAGUCACCCUUGGCAGCUCUCUGCCAGUGAUGUUGGUUUAUAAG [#07 K4 Theophylline A Same State] | 0.139 | 0.0894 | 0.144 | 0.177 | 0.117 |
| ACUGAAAGAUCUGAUACCAGACUUUUUGUAUUUAUUAAAACUAGUGAUGUUAGUUUAUCAGUCCCUUGGCAGCAGUUACUACAGA [JR_Nu_ExcTheophyB_Sub024] | 0.091 | 0.106 | 0.105 | 0.103 | 0.0954 |
| UGACUGGAUGGAAGGAGCGCUAAACUCCUAGUGAUGUUAGGGAUAUGAGGCAAAGCCUCGAGGCAGGUAGGUCGCCAUCUAGUCU [FiskerMod 19 - Jieux - Same State - Arginine B] | 0.138 | 0.114 | 0.135 | 0.142 | 0.122 |
| GCCGUAGAUCGAAGGAGCGUGCAAGAAUCGUAGUGAUGUUACGGAGAGUGUCACGCCGUCGCACAGGUAGGUCGCGAUCUACGGC | 0.071 | 0.0764 | 0.0841 | 0.0692 | 0.0668 |
| GGAUCCACCAGUGAUGUUGGAGAAAACUCUAAGGAUAUGACGAAAGUCAGAAGGUGGUAGACUGGACAAAGUCCGGUCGGAUCCA [FmnA 23 U30] | 1.21 | 0.177 | 0.397 | 0.263 | 0.347 |
| CGAGUGAUGUUCGUUUUAAAAUUUUUUUGACAGGAUAUGCGGAAACGCAGAAGGGUCACCUUUGAGUUAAAAGAAAUUAAAUUUU [Ex FMN 16] | 0.175 | 0.223 | 0.198 | 0.224 | 0.166 |
| AAGGCCACGAGAAGGAGCGUGCUAUGGAGUGAUGUUCCAGUGUAGACCUAAGGUCUACACGCACAGGUAGGUCGCUCGUGGUCAA [Omei KL Arginine B SS A v1] | 0.209 | 0.186 | 0.203 | 0.238 | 0.186 |
| AAGGGCUAGGCGGCCGCCACUUGUUGUGAACACAUACGAGCCAGUGAUGUUGGUAUUGUGUGCGGAAGGACCGGGCCUAGCCGAA [Exclusion - Tryptophan B (Freestyle 22)] | 0.178 | 0.226 | 0.228 | 0.224 | 0.302 |
| AUUUAGACGAGUGAUGUUCGUGUUAUUACAGAGGAUAUGCGUAAAAGCAGAAGGCUGUAUUUAUAUUUGUUAUGUAAUUUUAAAA [JR_ExcFMNA_Sub006] | 0.0752 | 0.105 | 0.0859 | 0.094 | 0.0639 |
| AAUAUAUAGUGAAGGAGCGCGUAUUGCAGUGAUGUUGCUAAGUUAUUAUUAUCUAUUUUUACGCAGGUAGGUCGCACUAUAUAUA [JR_SSArginiB_Sub014] | 0.213 | 0.231 | 0.224 | 0.245 | 0.193 |
| CCGUCGACAAGCGCCAUCGUCUACGUCAAUAAGGAUAUCAUCAAGGUGAGAAGGUAUGACAACCGGAGUGAUGUUCCAGGGCGAA [theeternabot_sameState_KL_FMN_A_5] | 0.506 | 0.362 | 0.367 | 0.304 | 0.346 |
| AGCGAGUGAUGUUCGCUGAUCAUGUGAAGUUAGGAUAUAUACUUGCAUAGAAGGAACUAUUACAUGACAUUAGAGGCAGUAGUUC [FMN A SS t7b] | 0.165 | 0.173 | 0.167 | 0.171 | 0.128 |
| AAGCUACGCGCGGCCGCCACUGUUUAUGUAUAAAUGCGUCGCUCACUGCUUUAGUGAUGUUGAAGCAGGACCGGGCGAAUGGUAC [theeternabot_exclusion_KL_Trp_B_15] | 0.0809 | 0.075 | 0.0796 | 0.0765 | 0.0827 |
| UUAGAGAUCUCAGGAUAUCAGUGAUGUUGGUGUGCAGAUCUGAGAUAGAAUUCUAUCUCAGAUCAAUGAGAAGGGAGAUCUCAUU [AK5 Exc FMN B] | 0.303 | 0.149 | 0.152 | 0.173 | 0.142 |
| UGGACCAAGGAGUGAUGUUCCAAAUGUGAUACCAGCCACGAAAGUGGCCCUUGGCAGCACUGCCAAAGGACGAAAGUCCGGUCCU [#SwitchBubble 10 #StaticStem #K4Early] | 0.371 | 0.352 | 0.382 | 0.659 | 0.28 |

| Sequence | apparent KD of K4 kissing-loop reporter (input ligand: FMN 200 uM) [µM] | apparent KD of K4 kissing-loop reporter (input ligand: arginine 13.2 mM) [µM] | apparent KD of K4 kissing-loop reporter (input ligand: none) [µM] | apparent KD of K4 kissing-loop reporter [1] [µM] | apparent KD of K4 kissing-loop reporter [2] [µM] |
| --- | --- | --- | --- | --- | --- |
| UGGUCUGCACGAAGGAGCGCCCUGACAGGUUGCUGCCGUGGGCAGUGAUGUUGCUUAGUCCGGCAGGUAGGUCGCGUGCAGACCA | 0.21 | 0.205 | 0.243 | 0.189 | 0.17 |
| UGUCAUUGGUCGGCCGCCACUAAAAUAAAAGAGUGAUGUUCUUAAAAGACGGACAAAGUCUGUCAUAGGACCGGGACCGAUGACU [TrypBS 23 #SwitchBubble #StaticStem] | 0.547 | 0.425 | 0.529 | 0.436 | 0.202 |
| UUCUACGAGUGAUGUUCGUAGUGUAUUCGCUAGGAUAUCGUUUUUUCGAGAAGGAGUGAUGAAGUGAUACGAAAGUAUCGCUUCU [FMN A 14] | 0.223 | 0.241 | 0.352 | 0.411 | 0.292 |
| AAACAUCACUGGGAGUGAUGUUCUCAGUGACGAGGACCGGUACGGCCGCCACUCGCGAGAGAUCUAGUCUAGUCUUGACUGCAUU [Excl Tryptophan A V13] | 0.282 | 0.284 | 0.292 | 0.359 | 0.333 |
| ACGCUUGAAUAACAAGCGAAAUAAAAUUCGCGAGGACCGGUACGGCCGCCACUCGCUAACUGCGAGUGAUGUUCGAUAAUAAAAU [Mat - Mod of OpenEnded 3 - D16] | 0.139 | 0.0802 | 0.129 | 0.208 | 0.0691 |
| CCUGUGUGUGAAGGAUAUAUUUCGCAUUAAAACUAGUGAUGUUGGUAAAUGGCACAAUCCGUAGCAAUAGAAGGUCACUCCGGAA [theeternabot_sameState_KL_FMN_B_22] | 0.499 | 0.445 | 0.793 | 0.498 | 0.524 |
| UGACUGGACUGAAGGAGCGCUAAACUCCUAGUGAUGUUAGGAUAACGAGACAAAGUCUCGAAGCAGGUAGGUCGCAGUCUAGUCU | 0.149 | 0.11 | 0.117 | 0.133 | 0.128 |
| AAUCAAUACAGAAGGAGCGUGACAAUUACUAUUGAAUUAGGUGCUAGUGAUGUUAGCAUUACACAGGUAGGUCGCUGUACAUUUA [JR_SSArginiB_Sub011] | 0.0814 | 0.0855 | 0.0875 | 0.089 | 0.0783 |
| GCCGUACGCAUGGAUACCAGCUACUAGAGUGAUGUUCUAUGGCCCUGCCAAUGGAGCUGUAGCCCUUGGCAGCCAUGCGUACGGC | 0.13 | 0.125 | 0.105 | 0.122 | 0.126 |
| CAUAGGAAACUAUGUUUCUCUCUUACUGAAGGAGCGCGUGAAAACGCAGGUAGGUCGCAGAUUUUGAGAGUGAUGUUCUCAAUAA [Ex Arginine A K4 18] | 0.128 | 0.167 | 0.139 | 0.155 | 0.0917 |
| AAUAUACAGGGAAGGAGCGCCGUCCAGUGAUGUUGGAGUUAAAUACCAGUGAUGUUGGUUAGGCAGGUAGGUCGCCCUAAAGUAU [Exclusion Arginine B Gf 2] | 0.125 | 0.0827 | 0.105 | 0.102 | 0.0967 |
| AAACUUGCAGUGAUGUUGCAAGUAGGUGAUACCAGCAUCGAAAGAUGCCCUUGGCAGCACCAAAACAUCACUUAGGUAUCACCAA [(H1)-(H2)-(T1)-(T2)-(H)'-(T)'_Design3] | 0.191 | 0.192 | 0.21 | 0.234 | 0.175 |
| GAGAUAGCGACGGCCGCCACUAGUGAUGUUAGUGCUGGUAGAUAGAUACUGGAACAGAAAUGACGUAGGACCGGGUCAGAUAGAG [#01 K4 Tryptophan B Exclusion] | 0.264 | 0.233 | 0.292 | 0.334 | 0.247 |
| GCCGUAGAUUGAAGGAGCGUGGAACUAUGGCUUGAACAGUGAUGUUGUUUAUCUAGGUAGCCACAGGUAGGUCGCAAUCUACGGC | 0.266 | 0.201 | 0.234 | 0.182 | 0.178 |
| UUCGGAUAAGUCCUUCCGAAGAAGCCGGAAGGAGCGACUCAAUAGUCAGGUAGGUCGCCGGCAAGCGUAGUGAUGUUAUGCUCAC [Arg A SS t6] | 0.966 | 0.598 | 0.882 | 0.713 | 0.74 |
| UUGUUUGGUUGAGAGGUUGGGCGAGAUGAUACCAGUAUAGAAGAGUACCCUUGGCAGCAUAGGAGAGAUAUAGUGAUGUUGUAUG [SSTheophA.T] | 0.437 | 0.355 | 0.48 | 0.494 | 0.333 |
| UAACAGGCCCUCACCGUCUUAUUUACAGACCGAGGACCGGUACGGCCGCCACUCGUGAAGUGAUGUUUCAAACAAGCGGUAGGAU | 0.721 | 0.467 | 0.685 | 0.48 | 0.328 |
| CGCAAGCAGCCAGUGAUGUUGGCCGCCUUGCGAGGACCGGUACGGCCGCCACUCGAAGGCGGCUACUGGUAAUCCGUCUAACGGA [Lareus] | 0.0846 | 0.0809 | 0.0868 | 0.0684 | 0.0899 |
| AAGGGCAGGACUUCCUUGCCGGAUAGAGAUACCAGCCCAGCAAAGGGCCCUUGGCAGCUCACUGACCUCAGUGAUGUUGAGGUUC [Xebisoer] | 0.369 | 0.268 | 0.332 | 0.272 | 0.297 |
| CUGACGCUGAUACGGUGGCCGCUGGUCGUGCGAGGACCGGUACGGCCGCCACUCGCAUGAGUGAUGUUCAUGUGUCGUCGUCGUC [#07 K4 Tryptophan A Exclusion] | 0.122 | 0.108 | 0.113 | 0.105 | 0.123 |
| UCCUAGGCUCGAAAGAGCCUAGGAUUAACUCAGGAUAUCCGGAAACGGAGAAGGGAGUAACUAGUGAUGUUAGGGAUUCCCUAUU | 0.208 | 0.094 | 0.109 | 0.0879 | 0.0927 |

From the supplement of paper PMC9170038
